This is an account of results in patent publication US20160151452A1.

One assay concerns the target EphB1-Fc. Description: SPR, cupredoxin immobilised on CM5 chip, 100 nM Eph-Fc injected.
The next assay has as its target EphA8-Fc. Described as above.

Sequence of EphA8-Fc (O09127 27-541): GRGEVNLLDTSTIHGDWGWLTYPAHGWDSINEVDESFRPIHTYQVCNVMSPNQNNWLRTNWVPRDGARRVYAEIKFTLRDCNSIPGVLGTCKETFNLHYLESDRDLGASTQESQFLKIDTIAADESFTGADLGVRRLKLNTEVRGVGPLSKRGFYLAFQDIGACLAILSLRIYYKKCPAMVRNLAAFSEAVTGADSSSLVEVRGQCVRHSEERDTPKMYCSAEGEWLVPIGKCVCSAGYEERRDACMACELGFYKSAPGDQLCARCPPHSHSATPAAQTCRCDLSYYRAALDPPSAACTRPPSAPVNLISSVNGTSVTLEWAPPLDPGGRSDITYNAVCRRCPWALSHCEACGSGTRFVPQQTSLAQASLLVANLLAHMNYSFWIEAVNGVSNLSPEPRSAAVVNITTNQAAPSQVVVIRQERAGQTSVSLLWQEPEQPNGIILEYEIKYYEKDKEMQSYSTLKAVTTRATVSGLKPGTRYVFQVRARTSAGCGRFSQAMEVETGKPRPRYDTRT
Sequence of EphB1-Fc (P09759 18-540): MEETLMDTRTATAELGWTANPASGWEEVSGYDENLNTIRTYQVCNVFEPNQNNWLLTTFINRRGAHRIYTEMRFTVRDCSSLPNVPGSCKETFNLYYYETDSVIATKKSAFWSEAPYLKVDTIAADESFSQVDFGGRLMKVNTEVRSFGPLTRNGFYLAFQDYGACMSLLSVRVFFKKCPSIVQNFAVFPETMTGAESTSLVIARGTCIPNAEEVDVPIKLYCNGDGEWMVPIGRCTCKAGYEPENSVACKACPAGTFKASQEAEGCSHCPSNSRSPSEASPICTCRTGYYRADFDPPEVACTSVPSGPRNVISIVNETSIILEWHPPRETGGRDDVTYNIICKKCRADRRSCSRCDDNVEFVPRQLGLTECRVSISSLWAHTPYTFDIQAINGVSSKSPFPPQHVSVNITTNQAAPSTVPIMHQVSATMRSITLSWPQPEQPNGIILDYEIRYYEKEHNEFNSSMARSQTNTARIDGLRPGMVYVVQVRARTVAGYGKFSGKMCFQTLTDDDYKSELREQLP

B1: rusticyanin from Thiobacillus ferrooxidans (protein)
chain: GTLDTTWKEATLPQVKAMLEKDTGKVSGDTVTYSGKTVHVVAAAVLPGFPFPSFEVHDKKNPTLEIPAGATVDVTFINTNKGFGHSFDITKKGPPYAVMPVIDPIVAGTGFSPVPKDGKFGYTDFTWHPTAGTYYYVCQIPGHAATGMFGKIVVK
For the molecule B1, the Req (saturating resonance) with EphB1-Fc and with EphA8-Fc was 79 RU each time.
